Data: patent US20260285942 (published 2026)
Changes are numbered by the printed parent chain.

T1: cynomolgus monkey TfR ECD (Macaca fascicularis)
T1 chain: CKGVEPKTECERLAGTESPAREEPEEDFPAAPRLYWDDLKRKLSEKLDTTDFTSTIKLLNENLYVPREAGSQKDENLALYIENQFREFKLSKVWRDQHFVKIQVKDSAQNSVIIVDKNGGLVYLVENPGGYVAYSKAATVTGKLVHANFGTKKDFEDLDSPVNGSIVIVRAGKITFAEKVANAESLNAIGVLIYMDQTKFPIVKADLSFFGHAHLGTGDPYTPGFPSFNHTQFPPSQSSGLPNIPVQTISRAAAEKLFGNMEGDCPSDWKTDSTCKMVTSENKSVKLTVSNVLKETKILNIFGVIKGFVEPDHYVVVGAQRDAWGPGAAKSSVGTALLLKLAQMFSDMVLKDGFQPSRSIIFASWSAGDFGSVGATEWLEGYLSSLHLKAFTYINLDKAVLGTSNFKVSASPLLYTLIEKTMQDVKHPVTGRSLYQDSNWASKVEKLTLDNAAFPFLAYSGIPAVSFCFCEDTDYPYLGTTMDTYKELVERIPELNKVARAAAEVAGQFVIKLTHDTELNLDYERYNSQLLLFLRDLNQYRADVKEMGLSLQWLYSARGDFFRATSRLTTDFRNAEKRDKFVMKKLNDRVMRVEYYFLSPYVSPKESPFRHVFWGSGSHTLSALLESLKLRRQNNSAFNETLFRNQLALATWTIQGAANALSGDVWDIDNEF

B1: hTfR affinity peptide 1 (designed binder)
chain: QVQLVESGGGLVHPGGSLRLSCVASGTSFSLNVVTWYRQALGKQREWVATINQSEAPTYADSVKGRFTISRDGAKNTVYLQMNSLVTEDTALYYCYDRYNEIRGQGTQVTVSS
B2: hTfR affinity peptide 2 (designed binder)
chain: B1 chain with R19S, V23A, L31F, V33T, Q53G, E55G, Q81L

What was measured:
human TfR ECD = human TfR ECD (human); test: SPR
[1] = molecular target: T1, cynomolgus monkey TfR ECD; test: SPR

Binder	Kd (human TfR ECD)	Kd [1]
B1	16.5 nM	17.6 nM
B2	16.5 nM	17.6 nM
